Test results from patent US5621078.

Biological target: epidermal growth factor receptor (Homo sapiens (Human)) (UniProt P00533)

TGF-alpha - PE40 AB (ligand) showed an A431 CELL KILLING EC50 pM of 47 pM.
